The results in this text go back to patent US20250019437A1.

Numbering of substitutions follows the chain as printed.

T1: human TREM2 (triggering receptor expressed on myeloid cells 2) (human) (UniProt Q9NZC2)
T1 sequence (looked up): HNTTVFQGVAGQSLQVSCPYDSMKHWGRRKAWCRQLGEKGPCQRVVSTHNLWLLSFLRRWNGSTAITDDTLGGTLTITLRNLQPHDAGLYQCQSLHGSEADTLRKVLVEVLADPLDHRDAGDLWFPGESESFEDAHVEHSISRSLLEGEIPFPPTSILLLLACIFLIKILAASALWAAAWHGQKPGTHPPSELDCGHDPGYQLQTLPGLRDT

B1: 6E7 antibody affinity modulation variant V79 (antibody, V domains shown)
VH: EVQLVQSGAEVKKPGESLKISCKGSGYSFTSYWIAWVRQMPGKGLEWMGIIYPGDSDTNYSPSFQGQVTISADKSISTAYLQWSSLKASDTAMYFCARQRTFYYDSSDYFDYWGQGTLVTVSS
VL: DIQMTQSPSSVSASVGDRVTITCRASQGISSWLAWYQQKPGKAPKLLIYAASSLQNGVPSRFSGSGSGTDFTLTISSLQPEDFATYFCQQADSFPRTFGQGTKLEIK
B2: 6E7 antibody affinity modulation variant V92 (antibody, V domains shown)
VH: B1 VH with N59R, Y103H
VL: B1 VL
B3: 6E7 antibody affinity modulation variant V8 (antibody, V domains shown)
VH: B1 VH with N59K
VL: B1 VL
B4: 6E7 antibody affinity modulation variant V19 (antibody, V domains shown)
VH: B1 VH with Y32S, N59R
VL: B1 VL
B5: 6E7 antibody affinity modulation variant V10 (antibody, V domains shown)
VH: B1 VH with N59R
VL: B1 VL with A50S
B6: 6E7 antibody affinity modulation variant V31 (antibody, V domains shown)
VH: B1 VH with D57E, N59R
VL: B1 VL
B7: 6E7 antibody affinity modulation variant V23 (antibody, V domains shown)
VH: B1 VH with N59R
VL: B1 VL with R96L
B8: 6E7 antibody affinity modulation variant V80 (antibody, V domains shown)
VH: B1 VH with N59R, T101N
VL: B1 VL
B9: 6E7 antibody affinity modulation variant V91 (antibody, V domains shown)
VH: B1 VH with G54D, N59R
VL: B1 VL
B10: 6E7 antibody affinity modulation variant V18 (antibody, V domains shown)
VH: B1 VH with W33H, N59R
VL: B1 VL
B11: 6E7 antibody affinity modulation variant V78 (antibody, V domains shown)
VH: B1 VH with S28R, N59R
VL: B1 VL
B12: 6E7 antibody affinity modulation variant V33 (antibody, V domains shown)
VH: B1 VH with N59R, Y104G
VL: B1 VL
B13: 6E7 antibody affinity modulation variant V22 (antibody, V domains shown)
VH: B1 VH with N59R
VL: B1 VL with A50R
B14: 6E7 antibody affinity modulation variant V20 (antibody, V domains shown)
VH: B1 VH with I50R, N59R
VL: B1 VL
B15: 6E7 antibody affinity modulation variant V32 (antibody, V domains shown)
VH: B1 VH with N59R, P62N
VL: B1 VL
B16: 6E7 antibody affinity modulation variant V30 (antibody, V domains shown)
VH: B1 VH with Y27S, N59R
VL: B1 VL
B17: 6E7 antibody affinity modulation variant V70 (antibody, V domains shown)
VH: B1 VH with N59R
VL: B1 VL with S52G
B18: 6E7 antibody affinity modulation variant V7 (antibody, V domains shown)
VH: B1 VH with Y32E, N59R
VL: B1 VL
B19: 6E7 antibody affinity modulation variant V81 (antibody, V domains shown)
VH: B1 VH with N59R
VL: B1 VL with W32L
B20: 6E7 antibody affinity modulation variant V21 (antibody, V domains shown)
VH: B1 VH with N59R, Y109F
VL: B1 VL
B21: 6E7 antibody affinity modulation variant V82 (antibody, V domains shown)
VH: B1 VH with N59R
VL: B1 VL with A51G
B22: 6E7 antibody affinity modulation variant V11 (antibody, V domains shown)
VH: B1 VH with N59R
VL: B1 VL with D92A
B23: 6E7 antibody affinity modulation variant V90 (antibody, V domains shown)
VH: B1 VH with Y32E, N59R
VL: B1 VL with S31R
B24: 6E7 antibody affinity modulation variant V71 (antibody, V domains shown)
VH: B1 VH with N59R
VL: B1 VL with F94E
B25: 6E7 antibody affinity modulation variant V83 (antibody, V domains shown)
VH: B1 VH with N59R
VL: B1 VL with D92V
B26: 6E7 antibody affinity modulation variant V93 (antibody, V domains shown)
VH: B1 VH with N59R
VL: B1 VL with S31G
B27: 6E7 antibody affinity modulation variant V94 (antibody, V domains shown)
VH: B1 VH with N59R
VL: B1 VL with S52A
B28: 6E7 antibody affinity modulation variant V9 (antibody, V domains shown)
VH: B1 VH with N59R, T101G
VL: B1 VL
B29: 6E7 antibody affinity modulation variant V6 (antibody, V domains shown)
VH: B1 VH with Y32M, N59R
VL: B1 VL
B30: 6E7 antibody affinity modulation variant V36 (antibody, V domains shown)
VH: B1 VH with I34L, N59R, Q99S
VL: B1 VL with L54R, F94Y
B31: 6E7 antibody affinity modulation variant V37 (antibody, V domains shown)
VH: B1 VH with F29H, N59R, Q65A, Q99S
VL: B1 VL with N56W, F94Y

The target of one experiment is T1, human TREM2 (triggering receptor expressed on myeloid cells 2) (human). In words: 2nd screen, 100 nM Ab.
For the molecule B1, the Binding Signal (fold over 6E7 parental antibody) is 0.52 fold.

For B2, the Binding Signal (fold over 6E7 parental antibody) was determined as 0.65 fold.

Take B3: the Binding Signal (fold over 6E7 parental antibody) was found to be 0.77 fold.

As for B4, the Binding Signal (fold over 6E7 parental antibody) was 0.48 fold.

Regarding B5, the Binding Signal (fold over 6E7 parental antibody) stood at 0.7 fold.

As for B6, the Binding Signal (fold over 6E7 parental antibody) was determined as 0.73 fold.

B7: the Binding Signal (fold over 6E7 parental antibody) was 0.4 fold.

On to B8, for which the Binding Signal (fold over 6E7 parental antibody) turned out to be 0.5 fold.

Take B9: the Binding Signal (fold over 6E7 parental antibody) was determined as 0.61 fold.

Take B10: the Binding Signal (fold over 6E7 parental antibody) was found to be 0.42 fold.

For B11, the Binding Signal (fold over 6E7 parental antibody) turned out to be 1.11 fold.

Take B12: the Binding Signal (fold over 6E7 parental antibody) is 0.34 fold.

Regarding B13, the Binding Signal (fold over 6E7 parental antibody) was 0.71 fold.

Turning to B14, the Binding Signal (fold over 6E7 parental antibody) came to 0.52 fold.

Turning to B15, the Binding Signal (fold over 6E7 parental antibody) came to 0.89 fold.

Consider B16, for which the Binding Signal (fold over 6E7 parental antibody) came to 0.72 fold.

Take B17: the Binding Signal (fold over 6E7 parental antibody) was found to be 0.84 fold.

Consider B18, for which the Binding Signal (fold over 6E7 parental antibody) amounted to 0.32 fold.

For B19, the Binding Signal (fold over 6E7 parental antibody) was determined as 0.23 fold.

Turning to B20, the Binding Signal (fold over 6E7 parental antibody) was 0.68 fold.

For B21, the Binding Signal (fold over 6E7 parental antibody) was found to be 0.79 fold.

On to B22, for which the Binding Signal (fold over 6E7 parental antibody) worked out at 0.42 fold.

In the case of B23, the Binding Signal (fold over 6E7 parental antibody) was determined as 0.36 fold.

In the case of B24, the Binding Signal (fold over 6E7 parental antibody) came to 0.48 fold.

In the case of B25, the Binding Signal (fold over 6E7 parental antibody) was 0.29 fold.

In the case of B26, the Binding Signal (fold over 6E7 parental antibody) was found to be 1.05 fold.

Regarding B27, the Binding Signal (fold over 6E7 parental antibody) was 0.87 fold.

Consider B28, for which the Binding Signal (fold over 6E7 parental antibody) came out at 0.54 fold.

On to B29, for which the Binding Signal (fold over 6E7 parental antibody) was determined as 0.56 fold.

Another experiment has the same target. In words: 1st screen, 110 nM Ab.
Turning to B1, the Binding Signal (fold over 6E7 parental antibody) is 0.7 fold.

Take B2: the Binding Signal (fold over 6E7 parental antibody) was found to be 0.22 fold.

Regarding B3, the Binding Signal (fold over 6E7 parental antibody) is 0.28 fold.

In the case of B4, the Binding Signal (fold over 6E7 parental antibody) was 0.59 fold.

With B5, the Binding Signal (fold over 6E7 parental antibody) is 0.76 fold.

Regarding B6, the Binding Signal (fold over 6E7 parental antibody) was found to be 0.61 fold.

Consider B7, for which the Binding Signal (fold over 6E7 parental antibody) was found to be 0.4 fold.

In the case of B8, the Binding Signal (fold over 6E7 parental antibody) was 0.59 fold.

As for B9, the Binding Signal (fold over 6E7 parental antibody) was found to be 0.25 fold.

Turning to B10, the Binding Signal (fold over 6E7 parental antibody) is 0.17 fold.

Consider B11, for which the Binding Signal (fold over 6E7 parental antibody) came to 0.86 fold.

Turning to B12, the Binding Signal (fold over 6E7 parental antibody) stood at 0.23 fold.

In the case of B13, the Binding Signal (fold over 6E7 parental antibody) was 0.3 fold.

B14: the Binding Signal (fold over 6E7 parental antibody) is 0.18 fold.

In the case of B15, the Binding Signal (fold over 6E7 parental antibody) was 0.82 fold.

On to B16, for which the Binding Signal (fold over 6E7 parental antibody) worked out at 0.79 fold.

For B17, the Binding Signal (fold over 6E7 parental antibody) stood at 0.79 fold.

As for B18, the Binding Signal (fold over 6E7 parental antibody) was 0.11 fold.

With B19, the Binding Signal (fold over 6E7 parental antibody) came out at 0.17 fold.

As to B20, the Binding Signal (fold over 6E7 parental antibody) was found to be 0.76 fold.

B21: the Binding Signal (fold over 6E7 parental antibody) was 0.3 fold.

Regarding B22, the Binding Signal (fold over 6E7 parental antibody) is 0.79 fold.

In the case of B23, the Binding Signal (fold over 6E7 parental antibody) amounted to 0.33 fold.

In the case of B24, the Binding Signal (fold over 6E7 parental antibody) was 0.37 fold.

As for B25, the Binding Signal (fold over 6E7 parental antibody) was 0.2 fold.

As for B26, the Binding Signal (fold over 6E7 parental antibody) came out at 0.35 fold.

For B27, the Binding Signal (fold over 6E7 parental antibody) was determined as 0.31 fold.

As to B28, the Binding Signal (fold over 6E7 parental antibody) came out at 0.67 fold.

With B29, the Binding Signal (fold over 6E7 parental antibody) was determined as 0.2 fold.

For the next experiment the target is unchanged. In words: 2nd screen, 10 nM Ab.
As for B30, the Binding Signal (fold over 6E7 parental antibody) was 3.44 fold.

Regarding B31, the Binding Signal (fold over 6E7 parental antibody) came to 3.49 fold.

A further experiment has the same target. The experiment is described as follows: 2nd screen, 2 nM Ab.
As to B30, the Binding Signal (fold over 6E7 parental antibody) turned out to be 4 fold.

On to B31, for which the Binding Signal (fold over 6E7 parental antibody) is 3.69 fold.

A further experiment has the same target. The experiment is described as follows: 1st screen, 10 nM Ab.
Regarding B30, the Binding Signal (fold over 6E7 parental antibody) was 3.38 fold.

Regarding B31, the Binding Signal (fold over 6E7 parental antibody) came to 3.46 fold.
